Results from patent publication US20230026666A1 (CATHOLIC UNIVERSITY OF AMERICA, published 2023).

Key:
[1] = biological target: T1, CD4 receptor on cells (human, UniProt P01730 26-458); assay: cell binding assay, protein coated, A3.01, A2.01 and Tzmbl cells added, CellTiterGlo detection
T1 construct: whole, on cells; also called CD4 receptor on T cells; CD4+ T cells (A3.01, A3R5, J-Lat 10.6, human PBMC)

[2] = biological target: T2, soluble human CD4 receptor with full-length extracellular domain (amino acids 1-370) (human, UniProt P01730 26-396); assay: ELISA, 0.1 ug protein coated per well, soluble CD4 added, detected with anti-CD4 antibody Sim.2
T2 construct: extracellular domain; also called soluble CD4; recombinant soluble CD4 (NIH AIDS Reagent program, 4615)

B1: Hoc (highly antigenic outer capsid protein), N-terminal hexa-histidine tag (other)
chain: HHHHHHMTFTVDITPKTPTGVIDETKQFTATPSGQTGGGTITYAWSVDNVPQDGAEATFSYVLKGPAGQKTIKVVATNTLSEGGPETAEATTTITVKNKTQTTTLAVTPASPAAGVIGTPVQFTAALASQPDGASATYQWYVDDSQVGGETNSTFSYTPTTSGVKRIKCVAQVTATDYDALSVTSNEVSLTVNKKTMNPQVTLTPPSINVQQDASATFTANVTGAPEEAQITYSWKKDSSPVEGSTNVYTVDTSSVGSQTIEVTATVTAADYNPVTVTKTGNVTVTAKVAPEPEGELPYVHPLPHRSSAYIWCGWWVMDEIQKMTEEGKDWKTDDPDSKYYLHRYTLQKMMKDYPEVDVQESRNGYIIHKTALETGIIYTYP
notes: Negative control
binding result [1]: no binding (tested: 15 pmoles per well) | binding result [2]: no binding
